Results reported in patent publication US20230002480A1.

What was measured:
Assay in all cases: cell-based or functional assay
[1] = molecular target: HIV-1 Env of pseudovirus 7030102001E5(Rev-) (HIV-1)
[2] = molecular target: HIV-1 Env of pseudovirus AC10.0.29 (HIV-1)
[3] = molecular target: HIV-1 Env of pseudovirus R2184.c04 (HIV-1)
[4] = molecular target: HIV-1 Env of pseudovirus 6240_08_TA5_4622 (HIV-1)
[5] = molecular target: HIV-1 Env of pseudovirus CNE17 (HIV-1)
[6] = molecular target: HIV-1 Env of pseudovirus RHPA4259.7 (HIV-1)
[7] = molecular target: HIV-1 Env of pseudovirus HIV-001428-2.42 (HIV-1)
[8] = molecular target: HIV-1 Env of pseudovirus WITO4160.33 (HIV-1)
[9] = molecular target: HIV-1 Env of pseudovirus X1254_c3 (HIV-1)
[10] = molecular target: HIV-1 Env of pseudovirus BJOX028000.10.3 (HIV-1)
[11] = molecular target: HIV-1 Env of pseudovirus Ce1176_A3 (HIV-1)
[12] = molecular target: HIV-1 Env of pseudovirus HIV-16845-2.22 (HIV-1)
[13] = molecular target: HIV-1 Env of pseudovirus CAP210.2.00.E8 (HIV-1)
[14] = molecular target: HIV-1 Env of pseudovirus ZM247v1(Rev-) (HIV-1)
[15] = molecular target: HIV-1 Env of pseudovirus Q259.d2.17 (HIV-1)
[16] = molecular target: HIV-1 Env of pseudovirus ZM249M.PL1 (HIV-1)
[17] = molecular target: HIV-1 Env of pseudovirus 6535.3 (HIV-1)
[18] = molecular target: HIV-1 Env of pseudovirus TRO.11 (HIV-1)
[19] = molecular target: HIV-1 Env of pseudovirus Ce1172_H1 (HIV-1)
[20] = molecular target: HIV-1 Env of pseudovirus Ce703010054_2A2 (HIV-1)
[21] = molecular target: HIV-1 Env of pseudovirus Ce2060_G9 (HIV-1)
[22] = molecular target: HIV-1 Env of pseudovirus CNE21 (HIV-1)
[23] = molecular target: HIV-1 Env of pseudovirus WEAU_d15_410_787 (HIV-1)
[24] = molecular target: HIV-1 Env of pseudovirus CNE52 (HIV-1)
[25] = molecular target: HIV-1 Env of pseudovirus Ce0393_C3 (HIV-1)
[26] = molecular target: HIV-1 Env of pseudovirus Q461.e2 (HIV-1)
[27] = molecular target: HIV-1 Env of pseudovirus REJO4541.67 (HIV-1)
[28] = molecular target: HIV-1 Env of pseudovirus T255-34 (HIV-1)
[29] = molecular target: HIV-1 Env of pseudovirus CAAN5342.A2 (HIV-1)

N49P7 (antibody)
neutralization IC50 [1]: 0.184 µg/mL
neutralization IC80 [1]: 0.832 µg/mL
neutralization MPI [1]: 100
neutralization IC50 [2]: 5.03 µg/mL
neutralization IC80 [2]: 36.7 µg/mL
neutralization MPI [2]: 89
neutralization IC50 [3]: 0.011 µg/mL
neutralization IC80 [3]: 0.031 µg/mL
neutralization MPI [3]: 100
neutralization IC50 [4]: 0.457 µg/mL
neutralization IC80 [4]: 1.73 µg/mL
neutralization MPI [4]: 100
neutralization IC50 [5]: 0.126 µg/mL
neutralization IC80 [5]: 0.46 µg/mL
neutralization MPI [5]: 100
neutralization IC50 [6]: 0.083 µg/mL
neutralization IC80 [6]: 0.246 µg/mL
neutralization MPI [6]: 100
neutralization IC50 [7]: 0.006 µg/mL
neutralization IC80 [7]: 0.02 µg/mL
neutralization MPI [7]: 100
neutralization IC50 [8]: 0.084 µg/mL
neutralization IC80 [8]: 0.248 µg/mL
neutralization MPI [8]: 100
neutralization IC50 [9]: 2.97 µg/mL
neutralization IC80 [9]: 13.6 µg/mL
neutralization MPI [9]: 100
neutralization IC50 [10]: 0.02 µg/mL
neutralization IC80 [10]: 0.123 µg/mL
neutralization MPI [10]: 100
neutralization IC50 [11]: 0.204 µg/mL
neutralization IC80 [11]: 0.589 µg/mL
neutralization MPI [11]: 100
neutralization IC50 [12]: 0.95 µg/mL
neutralization IC80 [12]: 3.94 µg/mL
neutralization MPI [12]: 100
neutralization IC50 [13]: 1.82 µg/mL
neutralization IC80 [13]: 6.49 µg/mL
neutralization MPI [13]: 100
neutralization IC50 [14]: 0.062 µg/mL
neutralization IC80 [14]: 0.214 µg/mL
neutralization MPI [14]: 100
neutralization IC50 [15]: 0.332 µg/mL
neutralization IC80 [15]: 2.47 µg/mL
neutralization MPI [15]: 98
neutralization IC50 [16]: 0.039 µg/mL
neutralization IC80 [16]: 0.134 µg/mL
neutralization MPI [16]: 100
neutralization IC50 [17]: 0.186 µg/mL
neutralization IC80 [17]: 0.598 µg/mL
neutralization MPI [17]: 100
neutralization IC50 [18]: 0.044 µg/mL
neutralization IC80 [18]: 0.16 µg/mL
neutralization MPI [18]: 100
neutralization IC50 [19]: 8.5 µg/mL
neutralization IC80 [19]: 37.5 µg/mL
neutralization MPI [19]: 92
neutralization IC50 [20]: 0.132 µg/mL
neutralization IC80 [20]: 0.466 µg/mL
neutralization MPI [20]: 100
neutralization IC50 [21]: 0.661 µg/mL
neutralization IC80 [21]: 2.55 µg/mL
neutralization MPI [21]: 100
neutralization IC50 [22]: 0.756 µg/mL
neutralization IC80 [22]: 6.02 µg/mL
neutralization MPI [22]: 97
neutralization IC50 [23]: 0.045 µg/mL
neutralization IC80 [23]: 0.117 µg/mL
neutralization MPI [23]: 100
neutralization IC50 [24]: 0.008 µg/mL
neutralization IC80 [24]: 0.023 µg/mL
neutralization MPI [24]: 100
neutralization IC50 [25]: 0.195 µg/mL
neutralization IC80 [25]: 0.802 µg/mL
neutralization MPI [25]: 100
neutralization IC50 [26]: 0.261 µg/mL
neutralization IC80 [26]: 0.922 µg/mL
neutralization MPI [26]: 100
neutralization IC50 [27]: 0.015 µg/mL
neutralization IC80 [27]: 0.049 µg/mL
neutralization MPI [27]: 100
neutralization IC50 [28]: 0.053 µg/mL
neutralization IC80 [28]: 0.262 µg/mL
neutralization MPI [28]: 100
neutralization IC50 [29]: 0.409 µg/mL
neutralization IC80 [29]: 1.21 µg/mL
neutralization MPI [29]: 100
